This is an account of results in US4493829A, “Bio-available succinylated protein-iron derivatives which do not cause gastric lesions, method of preparation and related pharmaceutical compounds” (Italfarmaco S.p.A., priority 1982, dated 1985).

Data set [1] can be described thus: Haematic levels after oral administration: Ferrolat-ferrous sulphate comparison. The arrangement: species or system male Wistar rats. To be noted: rat, in vivo, 1 mg/kg. As for the experimental part: Male Wistar rats, weighing approximately 200 grammes and starved for 18 hours were taken, randomized and separated into groups of 5; each group had been sacrificed at the determined hour and blood was taken from each animal by resecting the carotid; the amount of iron in the blood of each animal of the group was determined spectrophotometrically by means of bathophenanthrolinsulphonic acid (Fe-test, Wako). The administration was carried out by a probe in an acqueous solution (5 ml/kg).
The succinyl ferroprotein derivative which was used was prepared as in example 1 (Ferrolat). It can be seen that the quantity of iron/kg. was the same for both the derivatives (Fe: 1 mg/kg).

The conditions of data set [2]: ferritin based treatment; cited from earlier work.
Data set [3] in a line: Haematic levels after oral administration: Ferrolat-ferritin comparison. The data set is classed as in vivo, male Wistar rats. The conditions noted are these: 1 mg/kg Fe oral. As to the method:
Male Wistar rats, weighing approximately 200 grams and starved for 18 hours, were taken, randomized and separated into groups of 9; each group was sacrificed at the determined hour and blood was taken from each animal by resecting the carotid. The amount of iron in the blood of each animal of the group was determined spectrophotometrically by means of the Iron Colorimetric Method (Boehringer-Mannheim). The administration was carried out by a probe in an acqueous solution (5 ml/kg). Dosages and results are shown in table X. It can be seen that the quantity of iron/kg for the succinyl ferroprotein derivative indicated as Ferrolat was that of ferritin (Sigma, St. Louis, Mo.) and equal to 1 mg/kg.

For data set [4] the following is noted: cited from earlier work.
Data set [5] can be described thus: Haematic levels: comparison between succinyl ferroprotein derivatives from different types of proteins. The data set is classed as in vivo, male Wistar rats. The conditions noted are these: two hours after administration, 1 mg/kg Fe oral. As for the experimental part:
Male Wistar rats, weighing approximately 200 grams and starved for 18 hours, were taken, randomized and separated into groups of 5 (one per dose of derivative and a control group). Each group was sacrificed two hours after administration and, by resecting the carotid, blood was taken from each animal and the iron content in the blood was determined by means of bathophenanthrolinsulphonic acid Fe-test, Wako). The oral administration was carried out by a probe in an aqueous solution (5 ml/kg). The doses of individual derivatives which were used were selected so that 1 mg/kg of Fe was always administered.

As for `O=S(=O)([O-])[O-].[Fe+2]` [FeSO4 7H2 O, ferrous sulphate], the Serum iron in data set [1] (0.5 h) is 336.27 μg %; in data set [1] (1 h), 272.14 μg %; in data set [1] (2 h) it was 273.56 μg %; in data set [1] (4 h) it was 129.50 μg %; in data set [1] (6 h), 80.52 μg %.
In the case of Ferritin, the gastrointestinal side effects result in data set [2] is “does not result in the gastrointestinal side effects”. In addition, the Serum iron in data set [3] (1 hour after treatment) came to 168.79 μg/100 ml; in data set [3] (2 hours after treatment), 170.66 μg/100 ml; in data set [3] (4 hours after treatment) it was 148.08 μg/100 ml; in data set [3] (6 hours after treatment), 89.22 μg/100 ml. In data set [4], the solubility in water entry was “soluble in water”.

B1: Succ. ovalbumin: iron derivatives from succinylated egg proteins (ovalbumin) (protein, UniProt P01012 2-386, looked up)
Ovalbumin: GSIGAASMEFCFDVFKELKVHHANENIFYCPIAIMSALAMVYLGAKDSTRTQINKVVRFDKLPGFGDSIEAQCGTSVNVHSSLRDILNQITKPNDVYSFSLASRLYAEERYPILPEYLQCVKELYRGGLEPINFQTAADQARELINSWVESQTNGIIRNVLQPSSVDSQTAMVLVNAIVFKGLWEKAFKDEDTQAMPFRVTEQESKPVQMMYQIGLFRVASMASEKMKILELPFASGTMSMLVLLPDEVSGLEQLESIINFEKLTEWTSSNVMEERKIKVYLPRMKMEEKYNLTSVLMAMGITDVFSSSANLSGISSAESLKISQAVHAAHAEINEAGREVVGSAEAGVDAASVSEEFRADHPFLFCIKHIATNAVLFFGRCVSP
modifications: 95% succinylated, iron derivative 3.6% Fe
Turning to B1, the “serum iron average values ± SE” value in data set [5] is given as 235.82 ± 46.06 μg/100 ml.
